From patent US20220195446 come the findings set out here.

The test system of data set [1] is ZnFng-WUS1 ATF (synthetic construct). Briefly: cell_activity. The note with it: endogenous WUS2 mRNA by RT-PCR relative to Act1 in corn protoplasts; range 8-12%; mock nearly zero; binding inferred from activation.
Data set [2] deals with ZnFng-WUS2 ATF (synthetic construct). Briefly: cell_activity. The settings on record: endogenous WUS2 mRNA by RT-PCR relative to Act1 in corn protoplasts; range 15-60%; mock nearly zero; binding inferred from activation.
Chain of ZnFng-WUS2 ATF (synthetic construct) (chain, as listed by the source): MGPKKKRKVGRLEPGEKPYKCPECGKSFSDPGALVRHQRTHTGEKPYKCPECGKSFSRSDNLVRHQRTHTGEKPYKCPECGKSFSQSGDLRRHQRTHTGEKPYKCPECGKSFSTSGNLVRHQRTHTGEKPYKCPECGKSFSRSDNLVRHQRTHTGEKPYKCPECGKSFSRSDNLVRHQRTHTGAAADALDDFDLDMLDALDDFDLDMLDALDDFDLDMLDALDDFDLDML

Chain of ZnFng-WUS1 ATF (synthetic construct) (chain, as listed by the source): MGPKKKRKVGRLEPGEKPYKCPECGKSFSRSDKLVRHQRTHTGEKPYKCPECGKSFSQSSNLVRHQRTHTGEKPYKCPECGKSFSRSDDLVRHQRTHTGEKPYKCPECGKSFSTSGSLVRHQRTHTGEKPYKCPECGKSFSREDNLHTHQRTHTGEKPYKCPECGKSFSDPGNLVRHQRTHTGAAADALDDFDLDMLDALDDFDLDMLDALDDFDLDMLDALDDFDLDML

“GACTAGGTTGCGGAAGGG (double strand) [ZnFng-WUS1 binding site in maize WUS2 promoter]”: the activity in data set [1] was 10 % of actin. For the sequence GAGGAGGATGCAGAGGTC (double strand), the activity in data set [2] was 50 % of actin.
